Test results reported in EP2112166B1.

Experiments:
[1] = molecular target: CTLA-4-IgG1 fusion protein (made in-house) (human) (UniProt P16410); experiment: BIAcore; CTLA-4-Ig on chip, 457.2 RU
[2] = molecular target: CTLA-4-IgG1 fusion protein (made in-house) (human) (UniProt P16410); experiment: BIAcore; CTLA-4-Ig on chip, 504.5 RU
[3] = molecular target: CTLA-4-IgG1 fusion protein (made in-house) (human) (UniProt P16410); experiment: BIAcore; CTLA-4-Ig on chip, 878.7 RU
CTLA-4-Ig(G4) (Repligen) [4] = molecular target: CTLA-4-Ig(G4) (Repligen) (UniProt P16410); experiment: competition ELISA: CTLA-4-Ig(G4) binding to coated B7.1-Ig(G1)
CTLA-4-Ig(G4) (Repligen) [5] = molecular target: CTLA-4-Ig(G4) (Repligen) (UniProt P16410); experiment: competition ELISA: CTLA-4-Ig(G4) binding to coated B7.2-Ig(G1)

- Ka [1]: 1.4e+09 M⁻¹
- Kd [1]: 0.721 nM
- koff [1]: 0.000505 s⁻¹
- kon [1]: 700000 M⁻¹ s⁻¹
- Ka [2]: 2.2e+09 M⁻¹
- Kd [2]: 0.455 nM
- koff [2]: 0.00043 s⁻¹
- kon [2]: 940000 M⁻¹ s⁻¹
- Ka [3]: 3.9e+09 M⁻¹
- Kd [3]: 0.254 nM
- koff [3]: 0.000253 s⁻¹
- kon [3]: 1e+06 M⁻¹ s⁻¹
- IC50 (CTLA-4-Ig(G4) (Repligen) [4]): 3.39 nM
- IC50 (CTLA-4-Ig(G4) (Repligen) [5]): 1.5 nM
B1: 4.10.2 antibody (antibody, from another filing, human IgG2, V domains shown)
VH: GVVQPGRSLRLSCVASGFIFSSHGIHWVRQAPGKGLEWVAVIWYDGRNKDYADSVKGRFTISRDNSKNTLYLQMNSLRAEDTAVYYCARVAPLGPLDYWGQGTLVTVSS
VL: SPGTLSLSPGERATLSCRASQSISSNFLAWYQQKPGQAPRLLIYRPSSRATGIPDSFSGSGSGTDFTLTISRLEPEDFALYYCQQYGTSPFTFGPGTKVDIKR
